The text below walks through data of patent publication US8093030B2, “Thermostable viral polymerases and methods of use” (Lucigen Corporation, priority 2005, dated 2012).

Residue numbers refer to the chain shown, from its start. Names may count otherwise.

Data set [1] relates to radiolabeled polynucleotide. Put plainly: Exonuclease assay (radioactive nucleotide release). The format is biochemical. The method, then: For example, polynucleotides can be synthesized such that a detectable proportion of the nucleotides are radioactively labeled. These polynucleotides are incubated in an appropriate buffer in the presence of the polypeptide to be tested. After incubation, the polynucleotide is precipitated and exonuclease activity is detectable as radioactive counts due to free nucleotides in the supernatant.
The presence of a 3′-5′ exonuclease domain in the 3173 DNA polymerase was detected by reduction in molecular weight of a 5′ fluorescently labeled oligonucleotide. Upon incubation of the primer/template complex described in Example 5, under the same conditions, a portion of the primer product was reduced in apparent molecular weight. This reduction in size was detected by capillary electrophoresis using an ABI 310 Genetic Analyzer operated in GeneScan mode. The presence of an exonuclease domain was confirmed by sequence alignment and by incubation of the polymerase with a radiolabeled polynucleotide, followed by digestion and precipitation with trichloroacetic acid. Radioactivity due to free nucleotides in the supernatant was measured.
An exonuclease assay was performed to confirm that exonuclease activity was eliminated in the mutants. […]
Exonuclease activity for polymerase 3173 was determined as described in Example 7.

Data set [2] concerns primed single stranded M13 DNA. Put plainly: Binding constant (Km) for primed template. The conditions noted are these: nucleotides in excess, 70° C. The format is biochemical. The method, then:
The binding constant (reported as Km, the concentration at which the reaction rate is 50% maximal) for nucleotides by polymerase 3173 was determined using activated calf thymus DNA as a template. Reactions were maintained under pseudo-first order conditions using a molar excess of all components, with the exceptions of the enzyme and the nucleotides. Reactions (50 μl) were incubated at 70° C. and samples (5 μl each) were removed at varying time points and spotted on DE81 paper. Activity was determined as described in Example 6. The binding constant for primed template was similarly determined except that nucleotides were supplied in excess and the concentration of primed template (primed single stranded M13 DNA) was varied.

Data set [3] deals with plasmid and random primers. Put plainly: Strand displacement activity in rolling circle amplification (RCA) with random primers. The format is biochemical. The protocol:
As used herein, “strand displacement activity” refers to the ability of a polymerase to displace downstream DNA encountered during synthesis. Protocols such as, e.g., strand displacement amplification (SDA) may exploit this activity. Strand displacement activity may be determined using primer-initiated synthesis. A polymerase of the invention is incubated in the presence of a plasmid and random primers. A polymerase of the invention may extend the primer the complete circumference of the plasmid at which point the 5′ end of the primer is encountered. If the polymerase is capable of strand displacement activity, the nascent strand of DNA is displaced and the polymerase continues DNA synthesis. The presence of strand displacement activity results in a product having a molecular weight greater than the original template. The higher molecular weight product can be easily detected by agarose gel electrophoresis.
Strand displacement activity was determined using primer-initiated synthesis in a rolling circle amplification (RCA) protocol. Briefly, polymerase 3173 was incubated in the presence of a plasmid and random primers. Polymerase 3173 extended the primer the complete circumference of the plasmid at which point the 5′ end of the primer was encountered.

The subject of a further data set is Poly rA: Oligo dT. Description: Reverse transcriptase activity by incorporation of radiolabeled dTTP. The format is biochemical. The protocol: Reverse transcriptase activity was detected by incorporation of radiolabeled deoxyribonucleotide triphosphates into polydeoxyribonucleotides using a ribonucleic acid template. […] Incorporation of dTTP was detected as radioactive counts adhering to DE81 filter paper. Similar reverse transcription reactions were measured by incorporation of labeled dTTP on a poly rA template using 1 unit of Tth (Promega) and 1 unit MMLV reverse transcriptase (Novagen) according to the respective manufacturers' recommended conditions.

In data set [4] the test system is single-stranded M13mp18 and double stranded pUC19 plasmid DNA. Description: High temperature isothermal RCA amplification with random decamer primers. The format is biochemical. The conditions noted are these: both templates. The method, then:
Five units of polymerase 3173 was used to amplify one nanogram each of single-stranded M13mp18 and double stranded pUC19 plasmid DNA. […] Either 0.5 μM or 5 μM of random decamer primers were added to each template. Reactions were incubated at 95° C. prior to addition of enzyme, then 16 hours at 55° C. with enzyme. One fiftieth of each reaction was resolved on a 1% agarose gel.
Results are shown in FIG. 5, Panel A. Lanes are as follows: five units of 3173 wild type DNA polymerase used to amplify M13mp18 single-stranded DNA template (lanes 2 and 3) and pUC19 double-stranded DNA (lanes 4 and 5) or no template (lane 6). Random ten nucleotide oligomer primers are added in the concentrations of 5 μM (lanes 2, 4 and 6) or 0.5 μM (lanes 3 and 5).
To determine if the amplification was specific for the template DNA, one μl of the amplification product of the positive pUC19 reaction was tested in a PCR reaction using primers specific for a 1 kb sequence in the bla gene of the original plasmid template. As a negative control, a reaction lacking deoxynucleotides was analyzed using PCR. As a positive control, the 1 kb sequence was amplified directly from 1 ng of pUC19.

Another data set deals with lacIq gene. Description: Fidelity assay, lacIq amplification with blue/white colony count. Conditions: 25 PCR cycles, target size 349 for lacIq.
The test system of data set [5] is plasmid DNA nicked with N.Bst NB1. Description: Isothermal RCA in the absence of added primers (nick-initiated synthesis).
Method: Suitably, nick-initiated polymerase activity can be detected, e.g., on an agarose gel, as an increase in the amount of DNA product due to synthesis in the presence of a nicking enzyme as compared to minimal or no product synthesized when nicking enzyme is absent from the reaction.
Reactions containing 10 ng of plasmid DNA, 20 mM Tris-HCl, 10 mM (NH4)2SO4, 10 mM KCl, 2 mM MgSO4, 0.1% Triton X-100, pH 8.8 at 25° C., and 200 μM each of dGTP, dATP, dTTP and dCTP were incubated for 2 hours at 56° C. with or without 10 units of nick-generating enzyme N.Bst NB1 (NEB) and either no DNA polymerase, 200 units of 3173 wt or 400 units of 3173 (D49A) mutant enzyme. Parallel reactions were performed in the absence of nicking enzyme, polymerase or both. Amplification products were analyzed by agarose gel electrophoresis.
In data set [6] the test system is ROX-labeled primer annealed to single-stranded M13mp18 DNA. Put plainly: Fluorescent (ROX) primer extension in presence of ddNTPs. The format is biochemical. The method, then: In separate reactions, ddGTP, ddATP, ddTTP, and ddCTP were added to the above mix in concentrations of 50, 500 and 5000 μM each. Five units of polymerase 3173 mutant D49A were added and the reactions were incubated for 30 minutes at 70° C. Extension of the primer was detected by the ABI 310 Genetic Analyzer in Gene Scan mode.

The subject of the next data set is activated ct DNA. Put plainly: Inhibition of radioactive nucleotide incorporation by chain terminating analogs. The format is biochemical. The conditions noted are these: control, 40 μM each dNTP, 70° C. 30 min. The method, then:
Based on alignment with family A DNA polymerases, amino acid 418 of the polymerase 3173 mutant D49A was mutated from phenylalanine to tyrosine. The mutant protein was expressed and the cells lysed and heat-treated at 70° C. for 10 minutes to inactivate host proteins. The polymerase 3173 mutant D49A/F418Y was tested for inhibition of radioactive nucleotide incorporation using chain terminating nucleotide analogs in the same mix as unlabeled deoxynucleotides. […] In separate reactions both the D49A/F418Y mutant and purified polymerase 3173 mutant D49A were tested for inhibition by 4 mM each of ddNTPs and 4 mM each acycloNTPs. A control with no chain terminators was included. 50 μl reactions were incubated at 70° C. for 30 min. 15 μl of each reaction was spotted on DE81 paper, washed and counted, and units of activity were determined as described in Example 6. The degree of inhibition due to incorporation of dideoxy- and acyclo-nucleotides is tabulated below.

In data set [7] the test system is M13 primer on M13mp18 ssDNA. Description: Primer extension detected by Pico Green with chain terminating analogs. The format is biochemical. Conditions: control without chain terminating analogs, 2 mM each dNTP. The protocol: In a second experiment, incorporation was tested by detection of DNA synthesis using a double-strand specific fluorescent dye, Pico Green (Invitrogen). […] In separate reactions, a mix of ddGTP, ddATP ddTTP, ddCTP (2 mM each) and a mix of the four acyNTPs (2 mM each) were added to extension reactions followed by DNA polymerase. As a control, identical reactions without added chain terminating analogs were also performed. Polymerase 3173 mutant D49A was tested and, for comparison, T7 DNA polymerase, which incorporates ddNTPs with very low discrimination, and Klenow fragment of E. coli polymerase I and VENTR DNA polymerase (New England Biolabs), both of which have a higher discrimination, were also tested. Extension of the primer was detected by fluorescence of Pico Green dye.

Method for lacIq gene: Fidelity was determined by a modification of the standard assay in which the lacIq gene is amplified by the DNA polymerase of interest and inserted into a plasmid containing genes encoding a functional lacZ alpha peptide and a selectable marker. Primers of SEQ ID NOS:28 and 29 were used to amplify a sequence containing both the lacIq and the KanR gene. […] Normally a white phenotype is seen for clone containing this construct when plated on X-Gal. Mutation of the lacIq results in a blue phenotype for the colonies when plated on X-Gal.
For high fidelity PCR amplification, five units of the wild-type (proofreading) DNA polymerase 3173 (SEQ ID NO: 6) was tested using the following mix (50 mM Tris HCl (pH 9.0 at 25° C.), 50 mM KCl, 10 mM (NH4)2SO4, 1.5 mM MgSO4, 1.5 mM MgCl2, 0.1% triton-X100, 250 mM ectoine and 0.2 mM each of dGTP, dATP, dTTP and dCTP. Opposing primers of SEQ ID 28 and 29 (1 μM each) amplified the expected 2 k kb product from template SEQ ID 30 (10 ng). After thermal cycling (94° C. for 1 minute, 25 cycles of (94° C. for 15 seconds, 60° C. for 15 seconds, 72° C. for 2.5 minutes) and 72° C. 7 minutes), reaction products were quantified to determine “fold amplification,” (see below) using agarose gel electrophoresis. Both primers contain Eco109I sites. The PCR product was digested with Eco109I and inserted into the Eco109I site of pUC19. 10 G cells transformed by the construct were plated on LB plates containing ampicillin (100 μg/ml), kanamycin (30 μg/ml) and X-Gal (50 μg/ml). Blue and white colony counts were used for the fidelity determinations.

B1: polymerase 3173: thermostable viral DNA polymerase with the amino acid sequence of SEQ ID NO:6 (protein)
chain: MGEDGLSLPKMMNTPKPILKPQPKALVEPVLCDSIDEIPAKYNEPVYFDLETDEDRPVLASIYQPHFERKVYCLNLLKEKVARFKDWLLKFSEIRGWGLDFDLRVLGYTYEQLRNKKIVDVQLAIKVQHYERFKQGGTKGEGFRLDDVARDLLGIEYPMNKTKIRETFKNNMFHSFSNEQLLYASLDAYIPHLLYEQLTSSTLNSLVYQLDQQAQKVVIETSQHGMPVKLKALEEEIHRLTQLRSEMQKQIPFNYNSPKQTAKFFGVNSSSKDVLMDLALQGNEMAKKVLEARQIEKSLAFAKDLYDIAKRSGGRIYGNFFTTTAPSGRMSCSDINLQQIPRRLRSFIGFDTEDKKLITADFPQIELRLAGVIWNEPKFIEAFRQGIDLHKLTASILFDKNIEEVSKEERQIGKSANFGLIYGIAPKGFAEYCIANGINMTEEQAYEISQKVEEVLHKDCRQHQVAYERFKYNEYVDNETWLNRTYRAWKPQDLLNYQIQGSGAELFKKAIVLLKETKPDLKIVNLVHDEIVVEADSKEAQDLAKLIKEKMEEAWDWCLEKAEEFGNRVAKIKLEVEEPHVGNTWEKP
modifications: Uncultured newly isolated virus
The term Km denotes the substrate concentration at which the rate is half of its maximum. On to B1, for which the “Thermostability (T1/2 at 95°)” value is 10 min. Moreover, the “3′-5′ exonuclease activity” value in [1] is listed as “strong”. Moreover, the nuclease activity result in [1] (assay detects levels below 0.1% of wild-type) is “potent”. In addition, in [2], the Km came to 5.3 nM. The Strand displacement result in [3] (listed as 3173) is reported as “strong”. For the same molecule, the Strand displacement result in data set [3] (listed as Polymerase 3173) was “displaced the nascent strand of DNA and continued DNA synthesis”. Moreover, in the data set on Poly rA: Oligo dT, the “reverse transcription in presence of manganese versus magnesium” value is reported as “equivalent”. Moreover, in the data set with Poly rA: Oligo dT (1 U enzyme, 60° C. 20 minutes (commercial enzymes per manufacturers' conditions)), the “Incorporation of dTTP” value was determined as 1.037 nmol. The estimated overall yield result in data set [4] (5 units, 1 ng template, 16 hours at 55° C.) was “approximately 50 μg”. Besides, the amplification entry in data set [4] is “up to 50,000 fold”. Moreover, the Fidelity in the data set with lacIq gene was 6.98 × 10^4. Besides, in the data set with lacIq gene (listed as DNA polymerase 3173), the Fidelity is recorded as 6.98E+04. The Extension from nicks entry in data set [5] is on record as “strong”. In [5] (nicking enzyme present, 2 hours at 56° C., 200 units 3173 wt or 400 units D49A), the “yields of DNA product” value is “multi-microgram yields”.

B2: polymerase 3173 mutant D49A/F418Y: double mutant of polymerase 3173 with both a D49A and a F418Y mutation, SEQ ID NO:27 (protein)
chain: B1 chain with D49A, F418Y
As to B2, the “primer extension at 0.2× ratio of ddGTP:dGTP” value in data set [6] (0.2× ddGTP:dGTP) was “nearly complete inhibition of primer extension”. The “discrimination against chain terminating nucleotides” value in data set [6] (conclusion drawn from the extension/incorporation data) is on record as “nearly zero”. Further, the “Activity, no terminators” value in the data set on activated ct DNA is recorded as 100.0%.

B3: T7: T7 DNA polymerase, which incorporates ddNTPs with very low discrimination (protein, UniProt P00581 1-704, looked up)
DNA-directed DNA polymerase: MIVSDIEANALLESVTKFHCGVIYDYSTAEYVSYRPSDFGAYLDALEAEVARGGLIVFHNGHKYDVPALTKLAKLQLNREFHLPRENCIDTLVLSRLIHSNLKDTDMGLLRSGKLPGKRFGSHALEAWGYRLGEMKGEYKDDFKRMLEEQGEEYVDGMEWWNFNEEMMDYNVQDVVVTKALLEKLLSDKHYFPPEIDFTDVGYTTFWSESLEAVDIEHRAAWLLAKQERNGFPFDTKAIEELYVELAARRSELLRKLTETFGSWYQPKGGTEMFCHPRTGKPLPKYPRIKTPKVGGIFKKPKNKAQREGREPCELDTREYVAGAPYTPVEHVVFNPSSRDHIQKKLQEAGWVPTKYTDKGAPVVDDEVLEGVRVDDPEKQAAIDLIKEYLMIQKRIGQSAEGDKAWLRYVAEDGKIHGSVNPNGAVTGRATHAFPNLAQIPGVRSPYGEQCRAAFGAEHHLDGITGKPWVQAGIDASGLELRCLAHFMARFDNGEYAHEILNGDIHTKNQIAAELPTRDNAKTFIYGFLYGAGDEKIGQIVGAGKERGKELKKKFLENTPAIAALRESIQQTLVESSQWVAGEQQVKWKRRWIKGLDGRKVHVRSPHAALNTLLQSAGALICKLWIIKTEEMLVEKGLKHGWDGDFAYMAWVHDEIQVGCRTEEIAQVVIETAQEAMRWVGDHWNFRCLLDTEGKMGPNWAICH
B3: the “Primer extension, dNTPs” value in data set [7] is recorded as 100.0%.
